In patent publication US6602854B1, “Branched multimeric Apo A-I agonist compounds” (priority 1997, dated 2003):

Tests used:
[1] = system: LDL
Procedure: (§1) The association of peptide 4 (SEQ ID NO:4) with human lipoprotein fractions was determined by incubating ^14C-labeled peptide 4 (SEQ ID NO:4) with each lipoprotein class (HDL, LDL and VLDL) and a mixture of the different lipoprotein classes.
(§2) HDL, LDL and VLDL were isolated by KBr density gradient ultracentrifugation at d=1.21 g/ml and purified by FPLC on a Superose 6B column size exclusion column (chromatography was carried out with a flow rate of 0.7 ml/min. and a running buffer of 10 mM Tris (pH 8), 115 mM NaCl, 2 mM EDTA and 0.01% NaN3). ^14C-labeled peptide 4 was incubated with HDL, LDL and VLDL at a peptide:phospholipid ratio of 1:5 (mass ratio) for 2 h at 37° C. The required amount of lipoprotein (volumes based on amount needed to yield 1000 μg) was mixed with 0.2 ml of peptide stock solution (1 mg/ml) and the solution was brought up to 2.2 ml using 0.9% of NaCl according to TABLE XIII:
(§3) After incubating for 2 hr. at 37° C., an aliquot (0.1 ml) was removed for liquid scintillation counting to determine the total radioactivity, the density of the remaining incubation mixture was adjusted to 1.21 g/ml with KBr, and the samples centrifuged at 100,000 rpm (300,000 g) for 24 hours at 4° C. in a TLA 100.3 rotor using a Beckman tabletop ultracentrifuge. The resulting supernatant was fractionated by removing 0.3 ml aliquots from the top of each sample for a total of 5 fractions, and 0.05 ml of each fraction was used for liquid scintillation counting. The top two fractions contain the floating lipoproteins, the other fractions (3-5) correspond to proteins/peptides in solution.

[2] = system: VLDL
Procedure: as §1, §2, §3

[3] = system: HDL
Procedure: as §1, §2, §3

[4] = HDL cholesterol in rabbits after injection of phospholipid/peptide complexes; type: in vivo, Male New Zealand White rabbits; set-up: HDL Cholesterol: unit not given here
Procedure: Small discoidal particles consisting of phospholipid (DPPC) and peptide were prepared following the cholate dialysis method. The phospholipid was dissolved in chloroform and dried under a stream of nitrogen. The peptide was dissolved in buffer (saline) at a concentration of 1-2 mg/ml. The lipid film was redissolved in buffer containing cholate (43° C.) and the peptide solution was added at a 3:1 phospholipid/peptide weight ratio. The mixture was incubated overnight at 43° C. and then dialyzed at 43° C. (24 hr.), room temperature (24 hr.) and 4° C. (24 hr.), with three changes of buffer (large volumes) at temperature point. The complexes were filter sterilized (0.22 μm) for injection and storage at 4° C.
Male New Zealand White rabbits (2.5-3 kg) were injected intravenously with a dose of phospholipid/peptide complex (5 or 10 mg/kg bodyweight, expressed as peptide) in a single bolus injection not exceeding 10-15 ml. The animals were slightly sedated before the manipulations. Blood samples (collected on EDTA) were taken before and 5, 15, 30, 60, 240 and 1440 minutes after injection. The hematocrit (Hct) was determined for each sample. Samples were aliquoted and stored at −20° C. before analysis.
Plasma Lipids. The total plasma cholesterol, plasma triglycerides and plasma phospholipids were determined enzymatically using commercially available assays according to the manufacturer's protocols (Boehringer Mannheim, Mannheim, Germany and Biomerieux, 69280, Marcy-L'étoile, France).
Lipoprotein Profiles. The plasma lipoprotein profiles of the fractions obtained after the separation of the plasma into its lipoprotein fractions were determined by spinning in a sucrose density gradient. The fractions were collected and in each individual fraction the phospholipid and cholesterol content was measured enzymatically.

## PVLDLFRELLNELLEALKQKLK [peptide 4]
[1]; LDL/Peptide
  Recovery: 89%
  radioactivity Total: 89330
  radioactivity Total before centrifugation: 100452
  radioactivity in Fraction 1: 43740
  radioactivity in Fraction 2: 15140
  radioactivity in Fraction 3: 11880
  radioactivity in Fraction 4: 10860
  radioactivity in Fraction 5: 7710
[1]; incubation with isolated LDL
  share of total radioactivity in fractions 1 and 2 (associated with lipoprotein): 66%
[2]; VLDL/Peptide
  Recovery: 75%
  radioactivity Total: 73280
  radioactivity Total before centrifugation: 97306
  radioactivity in Fraction 1: 42920
  radioactivity in Fraction 2: 19280
  radioactivity in Fraction 3: 3930
  radioactivity in Fraction 4: 2600
  radioactivity in Fraction 5: 4550
[2]; incubation with isolated VLDL
  share of total radioactivity in fractions 1 and 2 (associated with lipoprotein): 85%
[3]; HDL/Peptide
  Recovery: 91%
  radioactivity Total: 89970
  radioactivity Total before centrifugation: 98494
  radioactivity in Fraction 1: 61510
  radioactivity in Fraction 2: 17620
  radioactivity in Fraction 3: 2260
  radioactivity in Fraction 4: 3130
  radioactivity in Fraction 5: 5450
[3]; incubation with isolated HDL
  share of total radioactivity in fractions 1 and 2 (associated with lipoprotein): 88%
[4]; 10 mg/kg i.v. as peptide/DPPC complexes, 15 min.
  HDL Cholesterol: 428
[4]; 10 mg/kg i.v. as peptide/DPPC complexes, time not printed (row between 0 and 15 min.)
  HDL Cholesterol: 408
[4]; 10 mg/kg, 15 min.
  Increase in HDL Cholesterol: 31.3%
[4]; 10 mg/kg, 60 min.
  HDL Cholesterol: 387
  Increase in HDL Cholesterol: 18.9%
[4]; 10 mg/kg, 240 min.
  HDL Cholesterol: 291
  Increase in HDL Cholesterol: −10.7%
[4]; 10 mg/kg, 1440 min.
  HDL Cholesterol: 347
  Increase in HDL Cholesterol: 6.6%
[4]; 10 mg/kg, apparent at 5 min. following injection
  duration of the increase in cholesterol of the HDL fractions: approximately 1 hr
[4]; 10 mg/kg, time not printed (row between 0 and 15 min.)
  Increase in HDL Cholesterol: 25.2%
